Measurements published in the DeepSol protein solubility set.

Experiment: soluble on expression in E. coli; label from the status in PepcDB or PDB records

| Sequence | soluble on expression in E. coli |
| --- | --- |
| MSTTHNVPQGDLVLRTLAMPADTNANGDIFGGWLMSQMDIGGAILAKEIAHGRVVTVRVEGMTFLRPVAVGDVVCCYARCVQKGTTSVSINIEVWVKKVASEPIGQRYKATEALFKYVAVDPEGKPRALPVE | soluble |
| MAYDGLFTKKMVESLQFLTTGRVHKINQPDNDTILMVVRQNRQNHQLLLSIHPNFSRLQLTTKKYDNPFNPPMFARVFRKHLEGGIIESIKQIGNDRRIEIDIKSKDEIGDTIYRTVILEIMGKHSNLILVDENRKIIEGFKHLTPNTNHYRTVMPGFNYEAPPTQHKINPYDITGAEVLKYIDFNAGNIAKQLLNQFEGFSPLITNEIVSRRQFMTSSTLPEAFDEVMAETKLPPTPIFHKNHETGKEDFYFIKLNQFNDDTVTYDSLNDLLDRFYDARGERERVKQRANDLVRFVQQQLHKYQNKLAKLIEEYEQSKNKDTEQLYGELITANIYRIKQGDKEVTALNYYTNEEVVIPLNPTKSPSANAQYYYKQYNRMKTRERELQHQIQLTKDNIDYFSTIEQQLHHISVHDIDEIRDELAEQGFMKQRKNQTKKKKAQ | not soluble |
| MNGTRNWCTLVDVHPEDRAAGSVDILRLTLQGEPTGDELEHIAQKAGRKTYAMVSSHSAGHSLASELVESHDGHEEIIKVYLKGRSGDKMIHEKNINQLKSEVQYIQEARNCLQKLREDISSKLDRNLGDSLHRQEIQVVLEKPNGFSQSPTALYSSPPEVDTCINEDVESLRKTVQDLLAKLQEAKRQHQSDCVAFEVTLSRYQREAEQSNVALQREEDRVEQKEAEVGELQRRLLGMETEHQALLAKVREGEVALEELRSNNADCQAEREKAATLEKEVAGLREKIHHLDDMLKSQQRKVRQMIEQLQNSKAVIQSKDATIQELKEKIAYLEAENLEMHDRMEHLIEKQISHGNFSTQARAKTENPGSIRISKPPSPKPMPVIRVVET | soluble |
| MKSKKILIVGAGFSGAVIGRQLAEKGHQVHIIDQRDHIGGNSYDARDSETNVMVHVYGPHIFHTDNETVWNYINKHAEMMPYVNRVKATVNGQVFSLPINLHTINQFFSKTCSPDEARALIAEKGDSTIADPQTFEEQALRFIGKELYEAFFKGYTIKQWGMQPSELPASILKRLPVRFNYDDNYFNHKFQGMPKCGYTQMIKSILNHENIKVDLQREFIVDERTHYDHVFYSGPLDAFYGYQYGRLGYRTLDFKKFIYQGDYQGCAVMNYCSVDVPYTRITEHKYFSPWEQHDGSVCYKEYSRACEENDIPYYPIRQMGEMALLEKYLSLAENETNITFVGRLGTYRYLDMDVTIAEALKTAEVYLNSLTDNQPMPVFTVSVGHHHHHH | soluble |
| MSLSTELDFEKPIRDLKGKIEELRTFTEEKEIDLSDEIEKLEKRLHALEENIYGNLKPWQRVQIARHGERPTTLDYIEQLFSDFLEMHGDRLYGDDEAIVAGIAKYKGQPVTVIGHQRGKDTKENIRRNFGMPHPEGYRKALRLMKQAEKFHRPVICFIDTKGAYPGKAAEERGQSEAIARNLLEMAGLKVPIVCIVIGEGGSGGALALGVGDRIHMLENSTYSVISPEGAAALLWKDASQAQRAAETMKITAPDLKELQIIDDIIPEVRGGAHRNVAEQAEAIDQVLEKSLKQLSSLTTEELLNKRYEKYKKIGEFSHVNDAISVNEGHHHHHH | soluble |
| MNVANNNCGQMLSDSSESSEPPRAQAGAVFGKKDKGKKADTKKKNTATEGSKRVKKEKKKDDGEAAKGDPTNKTNMTPAPPQTHPIVEQWVLRALDVGVDKLREEFRGLAKYTRPDMTQVMFNANQSPDIAITKNRYQDVPCQDQSAVKLDQPSPCNYIHANYVGCPMIPEKRFICAQGPLDQTIDEFWWMVIQNKVEQIVMLCKTVEMGKLKCAQYWPAAQGEKLTLKSGCVVENVSGSKPMERDPEIQITMLNLTYSGGQTMSVRHLQWTEWPDRGVPPCKLTSLELLSAIRGSKVPIVVHCSAGIGRTGTIVAIEYILEKIAENKPCPPMPELVKALRDQRAFSIQNDVQYLFIHRVMLNYFLEKYKEKYAALLTAENVAKYDKFIKDYNAAVGQ | not soluble |
| MGSDKIHHHHHHMTHDLLDLLRQWHQSPDEAWVLAVLTQVQGSSYRKPGAMMLFHPMGKSYGMLSGGCLEADLRRHAQQVIQSQCVAQVEYDASDESDSSYQLGCGGIVNIMLVTVTKANDYLGFNPLLAALARGDSVEYELSLPANASPCQQASAKLSIVPLSDNLTQAQLKGAHKAVTAYKHEVLTMRLAPPIALGIFGAGLDAQPVAAMAQQLGWQVSVFDERSAYGRLYDFPSVKVVKGPFDAIEPAILKRLDAAIVMSHNLNLDAKALSLLASLSQPHSHNNLAYLALLGPPQRRDRVLRIAGLELADIKCFFSAPAGLALGGELPSSVALSIVSQCHGVLHGSAIIALDEVMGCP | not soluble |
| MASPVIYQAEDAIIYNAILETVNAGYTGSCYVNYHNEVGGYIEWNVNAPSSGSYALIFRYANGTTANRPMRITVNGNIVKPSMDFVSTGAWTTWNEAGIVANLNQGNNVIRATAIASDGGPNVDYLKVFSANAFQPVSLEHHHHHH | soluble |
| MGSDKIHHHHHHMSGIEAFSPKGMLHECWSAQANDYAIVCGWALQGKTFLVGDVAGGLYAFEGISGKLIWQIKDIHKGGLLAMSIHPNGKTFATAGQDGHVNIWESQKGTSTKTLELGKGWVEHIKWSPDGKFLAVVFTKYVYVFDDKGQEHWRSEEHPSTVSAIAWSNSNELATACYGQVTFFDVVNDKINQKLEWRGSLVSMVLSPDGDIVACGSQDNSVHFWRRSTDQDSEMTGYPGKPSHLAFDQTGTVLATGGSDRVTVWSFQGDGPEGTVPGELMLHTEPISCLAFSHSGMLLASGSRDGSVFSWFLQKDGQGDPVGGAFAGDLVSQIAWHPDDTALAAINANGGITVWEFKVRTKTSPQGFG | not soluble |
| MSLKLKTLALSLLAAGVLAGCSSHSSNMANTQMKSDKIIIAHRGASGYLPEHTLESKALAFAQHSDYLEQDLAMTKDGRLVVIHDHFLDGLTDVAKKFPYRHRKDGRYYVIDFTLKEIQSLEMTENFETKDGKQAQVYPNRFPLWKSHFRIHTFEDEIEFIQGLEKSTGKKVGIYPEIKAPWFHHQNGKDIATETLKVLKKYGYDKKTDMVYLQTFDFNELKRIKTELLPQMGMDLKLVQLIAYTDWKETQEKDPKGYWVNYNYDWMFKPGAMAEVVKYADGVGPGWYMLVNKEESKPDNIVYTPLVKELAQYNVEVHPYTVRKDALPEFFTDVNQMYDALLNKSGATGVFTDFPDTGVEFLKGIKEGHHHHHH | soluble |
| RQRSLSTSGESLYHVLGLDKNATSDDIKKSYRKLALKYHPDKNPDNPEAADKFKEINNAHAILTDATKRNIYDKYGSLGLYVAEQFGEENVNTYFV | soluble |
| AHHHHHHGSKRRAVVLFSGGLDSTACLYWAKKQYDEVIMLTVNYGSNEERVTNKVAEYFSKELDVRLKIVKLDFLKEFSEIRGSSLVGGEVPRVTAEELEDIEKASETARSVWIPARNLVLISVAASLLDALGGGDIIVGFNAEEATTFPDNSREFVEKLNEALRFATLNPVKVVAPLIDLDKRGIAKLLKELNAKYEYSNSCYNPKGFTEDGRPIHCGECESCVRRHKGLIEGIGEDKTVYAITPRI | not soluble |
| MSEKTFLVEIGTEELPPKALRSLAESFAANFTAELDNAGLAHGTVQWFAAPRRLALKVANLAEAQPDREIEKRGPAIAQAFDAEGKPSKAAEGWARGCGITVDQAERLTTDKGEWLLYRAHVKGESTEALLPNMVATSLAKLPIPKLMRWGASDVHFVRPVHTVTLLLGDKVIPATILGIQSDRVIRGHRFMGEPEFTIDNADQYPEILRERGKVIADYEERKAKIKADAEEAARKIGGNADLSESLLEEVASLVEWPVVLTAKFEEKFLAVPAEALVYTMKGDQKYFPVYANDGKLLPNFIFVANIESKDPQQIISGNEKVVRPRLADAEFFFNTDRKKRLEDNLPRLQTVLFQQQLGTLRDKTDRIQALAGWIAEQIGADVNHATRAGLLSKCDLMTNMVFEFTDTQGVMGMHYARHDGEAEDVAVALNEQYQPRFAGDDLPSNPVACALAIADKMDTLAGIFGIGQHPKGDKDPFALRRAALGVLRIIVEKNLNLDLQTLTEEAVRLYGDKLTNANVVDDVIDFMLGRFRAWYQDEGYTVDTIQAVLARRPTRPADFDARMKAVSHFRTLDAAAALAAANKRVSNILAKSDEVLSDRVNASTLKEPEEIKLAMQVVVLRDKLEPYFTEGRYQDALVELAELREPVDAFFDKVMVMVDDKELRINRLTMLEKLRELFLRVADISLLQ | soluble |
| MSLENKMPKDFFWGNSTSSMQTEGGWNEGGKGPSVYDVNTAGRSAKDWQVTNDNYHHYSQDLDLMKEMNMNMYRFQISWSRIVPDGDGEFNEEGIAFYNRLIDDLLARGIEPMICLYHFDMPLNLAEKYNGFLSRKVKEAFVRFGQEMMKRFADKVKYWIVFNEHNLYFADGFEHYSGVLKKELTLSDMYTVFHHTMLAHCELTQFLHENFEAKIGGMLATTEIYPATFSPKDNLYLRKFDEFYNRNLCDVYAFGHYSHEVMTYVKNQNIQMDFQKGDEEILKNGISDFISFSYYRSILLDASQLTENDAPNSYLTKGMKLNPLLEHNQWDWSIDPEGFRRILSRLYNEFGLPVFPIENGIGQSEIWDGKTKIADDLRIFYHQKHLEAMKKAIFTDGVEVMGYLGWGLIDIPASSGAIDKRYGAVYVDPKSHKRIPKKSFHWFKNVFASNGDHLDEGHHHHHH | not soluble |
| MFVELNNLLNTTPDRAEQGKLTLLCDAKTDGSFLVHHFLSFYLKANCKVCFVALIQSFSHYSIVGQKLGVSLTMARERGQLVFLEGLKSAVDVVFQAQKEPHPLQFLREANAGNLKPLFEFVREALKPVDSGEARWTYPVLLVDDLSVLLSLGMGAVAVLDFIHYCRATVCWELKGNMVVLVHDSGDAEDEENDILLNGLSHQSHLILRAEGLATGFCRDVHGQLRILWRRPSQPAVHRDQSFTYQYKIQDKSVSFFCQRNVSCCSVT | soluble |
| MKCSKCQAEAIYFAKYNGLYLCREHFNDMIEKRVKSEIRNQVDLKKPMVRISVAISGGKDSSVTLYLLHKILSKRRNVELTAFTVDEGISGYRPAGLESAIKLTKMLGVDHSIIRFQDSFGMTLDSIVGADASRIPCSYCGPLRRKLINEMAERQNADYVALGLNLDDYSQSILMNVAKGDYDRLLRMSPQKEAKDGLVRRIAPLRSVLEKEVVLYAVINGIPFDSSWCPYYSRAQRNIFREVVNTLSEYNPSTKFSILKFFERARSDVQRNDKALGRCRICGAPTENDVCSACAAMESLRNERKASESELHAR | not soluble |
| MGSDKIHHHHHHMKRAVGDLIEETMDIVLANPRGFCAGVDRAIIIVEQALEKFGAPIYVRHEVVHNKFVVDDLKKKGAIFVEELDEVPAGNTVIFSAHGVSKDVRAEAEARGLQVFDATCPLVTKVHLEVAKMRASGKEIIMIGHKGHPEVEGTMGQAEGGMYLVESPEDVAMLEVKDPSQLAYVTQTTLSIDDAAAIVSALKAKFPEITPPRSDSICYATQNRQDAVKVMARDCDLVIVVGSPNSSNSNRLREVAQNQGVESYMVDNASFLDPAWIVGKKRIGVSAGASAPEVLVQEVINKLRALGAADVQELNGVVENVVFKIPRNLAEA | not soluble |
| MSLKFHSPYLPLIKLIIVVKTPLELITDNLLPTIKVLIAKKLRELGMSQNRIAILLGVTQPAVKQYLDEDENFQYEKLRELGLKDEEIEDITQDLVNILNKNDTKSAMYYITDIGLRYLSELKFCKFHKENDKYIPQDCDICRYIYRQNEEERMEIALSMLQNEFVTPLIPEVLSNLAFARKNPKGINDVLAVEGRITKVKGIPTPASNPSWGSSKHLATILLKIMQKDPSIRSIMNIKYDKKIDEALHFLNFRIVYVGPSDENDDESISNLIYSAFYSGIDCVVHLGGKGLEPITYVLGKDPVEVVKKVIEIGKKYRELTENEGHHHHHH | soluble |
